Test results: paper PMC4002761

Biological target: Taxol-stabilized Cy5-microtubules
Assay: single-molecule TIRF microscopy

Substance | fold increase in the frequency of active landing events against FL WT Kif21a [fold]
mouse GFP-fused FL MT3 (R943W) Kif21a (natural protein) | 10
mouse GFP-fused FL MT1 (M356T) Kif21a (natural protein) | 10
